B1: Hu2117HK-Mu01 (Fc fusion)
scFv: EVQLVESGGGLVQPGGSLRLSCAASGFTYSSYGMSWVRQAPGKGLEWVASISGGGSYTKYPDSVKGRFTISRDNSKNTLYLQMNSLRAEDTAVYYCARDYAGFFDVWGQGTLVTVSSGGGGSGGGGSGGGGSDIQMTQSPSSLSASVGDRVTITCRSSQSLVHSNGNTYLHWYQQKPGKSPKLLIYKVSNRFSGVPSRFSGSGSGTDFTLTISSLQPEDFATYFCSQSTHVPYTFGQGTKVEIK
notes: scFv-hIgG1 Fc; not shown: human IgG1 Fc
B2: Hu2117HK-Mu04 (Fc fusion)
scFv: B1 scFv with M136L, S180A
notes: as for B1
B3: Hu2117HK-Mu03 (Fc fusion)
scFv: B1 scFv with I134V, S180A
notes: as for B1
B4: Hu2117HK-Mu09 (Fc fusion)
scFv: B1 scFv with P61G, S180A
notes: as for B1
B5: Hu2117HK-Mu02 (Fc fusion)
scFv: B1 scFv with S180A, T222V
notes: as for B1
B6: Hu2117HK-Mu08 (Fc fusion)
scFv: B1 scFv with P61A, S180A
notes: as for B1
B7: Hu2117HK-Mu05 (Fc fusion)
scFv: B1 scFv with Y29F, S180A
notes: as for B1
B8: Hu2117HK-Mu07 (Fc fusion, name in Kabat numbering)
scFv: B1 scFv with K59Y, S180A
notes: as for B1
B9: Hu2117HK-Mu06 (Fc fusion)
scFv: B1 scFv with A49S, S180A
notes: as for B1
B10: 2126-Hu-H57 (antibody, IgG1, name in Kabat numbering, V domains shown)
VH: QVQLVQSGSELKKPGASVKVSCKASGYTFTDYSMHWVRQAPGQGLEWMGWINTETGEPTYADDFKGRFVFSLDTSVSTAYLQISSLKAEDTAVYFCVRVGRYGYAMDYWGQGTTVTVSS
VL: DIQMTQSPSSLSASVGDRVTITCKASQDVYTAVAWYQQKPGKAPKLLINSASYRYTGVPSRFSGSGSGTDFTLTISSLQPEDFATYYCQQHYSTPPTFGGGTKVEIK
notes: IgG1/Cκ
B11: 2126-Hu-H60 (antibody, IgG1, name in Kabat numbering, V domains shown)
VH: B10 VH with G103Y
VL: B10 VL
notes: IgG1/Cκ
B12: 2126-Hu-L02 (antibody, IgG1, V domains shown)
VH: B10 VH with G103D
VL: B10 VL with K24R
notes: IgG1/Cκ
B13: 2126-Hu-L03 (antibody, IgG1, V domains shown)
VH: B10 VH with G103D
VL: B10 VL with Y30S
notes: IgG1/Cκ
B14: 2126-Hu-L13 (antibody, IgG1, V domains shown)
VH: B10 VH with G103D
VL: B10 VL with Y53T
notes: IgG1/Cκ
B15: 2126-Hu-L07 (antibody, IgG1, V domains shown)
VH: B10 VH with G103D
VL: B10 VL with Y53D
notes: IgG1/Cκ
B16: 2126-Hu-L11 (antibody, IgG1, V domains shown)
VH: B10 VH with G103D
VL: B10 VL with Y53Q
notes: IgG1/Cκ
B17: 2126-Hu-H59 (antibody, IgG1, V domains shown)
VH: B10 VH with G103S
VL: B10 VL
notes: IgG1/Cκ
B18: 2126-Hu-L17 (antibody, IgG1, V domains shown)
VH: B10 VH with G103D
VL: B10 VL with Y55Q
notes: IgG1/Cκ
B19: 2126-Hu-L15 (antibody, IgG1, V domains shown)
VH: B10 VH with G103D
VL: B10 VL with Y55E
notes: IgG1/Cκ
B20: 2126-Hu-L08 (antibody, IgG1, V domains shown)
VH: B10 VH with G103D
VL: B10 VL with Y53E
notes: IgG1/Cκ
B21: 2126-Hu-L21 (antibody, IgG1, V domains shown)
VH: B10 VH with G103D
VL: B10 VL with H91Y
notes: IgG1/Cκ
B22: 2126-Hu-L12 (antibody, IgG1, V domains shown)
VH: B10 VH with G103D
VL: B10 VL with Y53S
notes: IgG1/Cκ
B23: 2126-Hu-H58 (antibody, IgG1, name in Kabat numbering, V domains shown)
VH: B10 VH with G103Q
VL: B10 VL
notes: IgG1/Cκ
B24: 2126-Hu-L19 (antibody, IgG1, V domains shown)
VH: B10 VH with G103D
VL: B10 VL with H91A
notes: IgG1/Cκ
B25: 2126-Hu-L18 (antibody, IgG1, V domains shown)
VH: B10 VH with G103D
VL: B10 VL with H91S
notes: IgG1/Cκ
B26: 2126-Hu-L10 (antibody, IgG1, V domains shown)
VH: B10 VH with G103D
VL: B10 VL with Y53N
notes: IgG1/Cκ
B27: 2126-Hu-L06 (antibody, IgG1, V domains shown)
VH: B10 VH with G103D
VL: B10 VL with S50A
notes: IgG1/Cκ
B28: 2126-Hu-H61 (antibody, IgG1, V domains shown)
VH: B10 VH with G103D, M106F
VL: B10 VL
notes: IgG1/Cκ
B29: 2126-Hu-L16 (antibody, IgG1, V domains shown)
VH: B10 VH with G103D
VL: B10 VL with Y55P
notes: IgG1/Cκ
B30: 2126-Hu-L01 (antibody, IgG1, V domains shown)
VH: B10 VH with G103D
VL: B10 VL with D28S
notes: IgG1/Cκ
B31: 2126-Hu-L09 (antibody, IgG1, V domains shown)
VH: B10 VH with G103D
VL: B10 VL with Y53K
notes: IgG1/Cκ
B32: 2126-Hu-L04 (antibody, IgG1, V domains shown)
VH: B10 VH with G103D
VL: B10 VL with A32Y
notes: IgG1/Cκ
B33: 2126-Hu-L05 (antibody, IgG1, V domains shown)
VH: B10 VH with G103D
VL: B10 VL with N49Y
notes: IgG1/Cκ
B34: 2126-Hu-L14 (antibody, IgG1, V domains shown)
VH: B10 VH with G103D
VL: B10 VL with Y55A
notes: IgG1/Cκ

Drawing on patent publication EP4725969A1 (Latticon (Suzhou) Biopharmaceuticals Co., Ltd., dated 2024), this text covers Kd, koff and kon for 34 molecules.

As usually defined, the Kd is the constant that tells how readily two partners part at equilibrium. Usually koff stands for a measure of how fast the partners let go of each other. In general, kon refers to the rate constant with which the complex forms.

Positions count from the first letter of the chain named.

The first test deals with T1, recombinant human HER2 extracellular domain protein (human, UniProt P04626 23-652).
T1 construct: range 23-652; Range is printed for the immunogen/panning protein; also called ErbB2; recombinant HER2 protein
Nature of the test: BLI, Protein A capture.
Take B1: the Kd was found to be 8.33 nM, the koff turned out to be 0.000718 s⁻¹ and the kon came to 86200 M⁻¹ s⁻¹.

Turning to B2, the Kd came out at 9.88 nM, the koff is 0.000895 s⁻¹ and the kon was determined as 90600 M⁻¹ s⁻¹.

Regarding B3, the Kd was 8.69 nM, the koff was 0.00071 s⁻¹ and the kon was found to be 81600 M⁻¹ s⁻¹.

Turning to B4, the Kd was determined as 6.38 nM, the off-rate (koff) was 0.000468 s⁻¹ and the on-rate constant (kon) amounted to 73400 M⁻¹ s⁻¹.

On to B5, for which the Kd turned out to be 8.32 nM, the koff is 0.000737 s⁻¹ and the kon came to 88600 M⁻¹ s⁻¹.

With B6, the Kd turned out to be 6.65 nM, the koff came to 0.000495 s⁻¹ and the on-rate constant (kon) worked out at 74500 M⁻¹ s⁻¹.

Turning to B7, the Kd turned out to be 6.76 nM, the koff was found to be 0.000529 s⁻¹ and the kon is 78300 M⁻¹ s⁻¹.

As to B8, the Kd is 11.7 nM, the koff was found to be 0.000465 s⁻¹ and the kon amounted to 39800 M⁻¹ s⁻¹.

In the case of B9, the Kd was determined as 8.18 nM and the kon was determined as 82600 M⁻¹ s⁻¹.

Another test concerns the target T1, recombinant human HER2 extracellular …. The test is described as follows: BLI, Protein A capture. The source holds these as a separate data set. Background: BLI is a label-free optical method that tracks binding on a fibre tip over time.
As to B10, the Kd stood at 14.5 nM, the off-rate constant (koff) was 0.00217 s⁻¹ and the kon came to 150000 M⁻¹ s⁻¹.

For the molecule B11, the Kd was found to be 23.8 nM, the koff turned out to be 0.00361 s⁻¹ and the kon turned out to be 152000 M⁻¹ s⁻¹.

For B12, the Kd amounted to 5.58 nM, the koff is 0.000551 s⁻¹ and the kon came to 98700 M⁻¹ s⁻¹.

Take B13: the dissociation constant Kd was 39.5 nM, the koff stood at 0.00186 s⁻¹ and the kon is 47100 M⁻¹ s⁻¹.

For B14, the Kd turned out to be 5.34 nM, the koff turned out to be 0.000531 s⁻¹ and the kon was 99500 M⁻¹ s⁻¹.

As to B15, the Kd came out at 6.46 nM, the koff turned out to be 0.00061 s⁻¹ and the kon worked out at 94300 M⁻¹ s⁻¹.

Take B16: the Kd came out at 6.25 nM, the koff is 0.000651 s⁻¹ and the on-rate constant (kon) stood at 104000 M⁻¹ s⁻¹.

As to B17, the Kd is 25.3 nM, the off-rate constant (koff) was 0.00287 s⁻¹ and the kon is 113000 M⁻¹ s⁻¹.

Consider B18, for which the Kd came to 7.91 nM, the koff came to 0.000786 s⁻¹ and the kon was found to be 99300 M⁻¹ s⁻¹.

For the molecule B19, the Kd was found to be 8.29 nM, the koff amounted to 0.000906 s⁻¹ and the kon stood at 109000 M⁻¹ s⁻¹.

On to B20, for which the Kd is 6.57 nM, the koff stood at 0.00062 s⁻¹ and the kon is 94300 M⁻¹ s⁻¹.

For the molecule B21, the Kd was 1.77 nM, the koff was 0.000193 s⁻¹ and the kon is 109000 M⁻¹ s⁻¹.

With B22, the Kd amounted to 6.13 nM, the koff was found to be 0.000619 s⁻¹ and the kon amounted to 101000 M⁻¹ s⁻¹.

For the molecule B23, the Kd is 26.3 nM, the koff worked out at 0.00409 s⁻¹ and the kon worked out at 155000 M⁻¹ s⁻¹.

With B24, the Kd amounted to 8.07 nM, the koff came out at 0.00085 s⁻¹ and the kon is 105000 M⁻¹ s⁻¹.

Regarding B25, the Kd was 8.83 nM, the koff was found to be 0.000912 s⁻¹ and the kon was 103000 M⁻¹ s⁻¹.

Turning to B26, the Kd was 5.38 nM, the koff amounted to 0.000558 s⁻¹ and the kon was 104000 M⁻¹ s⁻¹.

As for B27, the Kd was 6.63 nM, the koff turned out to be 0.000659 s⁻¹ and the kon came out at 99400 M⁻¹ s⁻¹.

As for B28, the Kd was 22 nM, the koff was found to be 0.00201 s⁻¹ and the kon came to 91400 M⁻¹ s⁻¹.

Consider B29, for which the Kd came to 4.38 nM, the koff worked out at 0.000464 s⁻¹ and the kon was found to be 106000 M⁻¹ s⁻¹.

Turning to B30, the Kd is 17.5 nM, the koff stood at 0.00195 s⁻¹ and the kon came to 112000 M⁻¹ s⁻¹.

With B31, the Kd was 5.11 nM, the koff was 0.00049 s⁻¹ and the kon is 95900 M⁻¹ s⁻¹.

For the molecule B32, the Kd was determined as 13.9 nM, the koff turned out to be 0.000611 s⁻¹ and the on-rate constant (kon) amounted to 43900 M⁻¹ s⁻¹.

B33: the Kd was 13.4 nM, the koff came out at 0.00139 s⁻¹ and the kon was found to be 104000 M⁻¹ s⁻¹.

On to B34, for which the Kd came to 6.48 nM, the koff was determined as 0.000666 s⁻¹ and the kon stood at 103000 M⁻¹ s⁻¹.
